This passage reports IC50, Kd and Pseudovirus Neutralization (IC50, nM) results from patent publication US20240327815A1.

The target of experiment [1] is B.1.351 (Beta) SARS-CoV-2 spike protein, plate-coated (MSD) (SARS-CoV-2) (UniProt P0DTC2). Put plainly: MSD competition vs labelled ACE2.
Experiment [2] addresses Omicron SARS-CoV-2 spike protein, plate-coated (MSD) (SARS-CoV-2) (UniProt P0DTC2). Put plainly: MSD competition vs labelled ACE2.
In experiment [3] the target is B.1.1.7 (Alpha) SARS-CoV-2 spike protein, plate-coated (MSD) (SARS-CoV-2) (UniProt P0DTC2). Put plainly: MSD competition vs labelled ACE2.
Experiment [4] addresses Delta SARS-CoV-2 spike protein, plate-coated (MSD) (SARS-CoV-2) (UniProt P0DTC2). Briefly: MSD competition vs labelled ACE2.
Experiment [5] concerns the target SARS-CoV-2 Delta (B.1.617.2) spike RBD (SPR) (SARS-CoV-2) (UniProt P0DTC2). Put plainly: SPR, 1:1 model.
The target is the same in experiment [6]. Put plainly: SPR. (In SPR one partner is held on a chip, and binding of the other changes the refractive index at the surface.)
In experiment [7] the target is Alpha SARS-CoV-2 spike on pseudotyped lentivirus (SARS-CoV-2) (UniProt P0DTC2). Briefly: cell-based or functional assay.
Experiment [8] concerns the target Beta SARS-CoV-2 spike on pseudotyped lentivirus (SARS-CoV-2) (UniProt P0DTC2). Briefly: cell-based or functional assay.

One may read the IC50 as the concentration that gives 50% inhibition. Higher therefore signals a need for much substance. Turning to Bamlanivimab + Etesevimab, the concentration for half-maximal inhibition (IC50) in experiment [1] worked out at 0.31 nM; in experiment [2] it was 0.59 nM; in experiment [3], 0.08 nM; in experiment [4], 0.16 nM.
As usually defined, the Kd is a measure of binding affinity in units of concentration. A lower Kd goes with tighter binding. Regarding REGN10933 (Casirivimab) (antibody), the Kd in experiment [5] and in experiment [6] was 0.0696 nM each time.
With REGN10987 (Imdevimab) (antibody), the dissociation constant Kd in experiment [5] and in experiment [6] was 0.105 nM throughout.
As for Sotrovimab (antibody), the Pseudovirus Neutralization (IC50, nM) amounted to 3.32 nM in experiment [7] and 0.01 nM in experiment [8].
